Test results published in publication PMC9697189, “Peptide-Based [^68Ga]Ga Labeled PET Tracer for Tumor Imaging by Targeting Tumor-Associated Macrophages” (Pharmaceutics, 2022).
Peptide text beside a SMILES is read from it. * marks the point of attachment. DOTA = O=C(O)CN1CCN(CC(=O)O)CCN(CC(=O)*)CCN(CC(=O)O)CC1

Assays:
[1] = in vitro; assay type: in vitro ADME, bovine; conditions: serum
Method: DOTA-M2pep (80 μg) was dissolved in 200 μL of purified water in a small vial. About 200 μL of [^68Ga]GaCl3 (44.4–59.2 MBq) was added, and 1 M sodium acetate buffer was used to adjust the final pH to 4.0–4.5. After incubation in a water bath at 55 °C for 30 min, the radiolabeling reaction was completed, and the mixture was collected. Radio-HPLC was performed to confirm the radiochemical purity of [^68Ga]Ga-DOTA-M2pep. The mobile phase was composed of solvent A, acetonitrile (ACN) solution, and solvent B, 0.1% trifluoroacetic acid (TFA) in water. The gradient solvent system was set up as follows: 0–8 min, 70% A and 30% B; 8–15 min, 100% A and 0% B; 15–17 min, 5% A and 95% B; 17–20 min, 95% A and 5% B at a flow rate of 1.0 mL/min. To investigate the in vitro stability, 3.7 MBq [^68Ga]Ga-DOTA-M2pep (100 μL) was incubated in the same volume of phosphate-buffered saline (PBS, pH = 7.4) or bovine serum at 37 °C, respectively. The radiochemical purity was assessed at 15, 30, 60, and 120 min. All experiments were performed in triplicate.

[2] = in vivo; set-up: species or system C57B/L6 mice; conditions: male, C57B/L6, mouse, iv, 3.7 MBq, total radioactivity
Method: (§1) The male C57B/L6 mice (6–8 weeks old, 20–25 g) were purchased from HFK bioscience (Beijing, China) and divided randomly into the experimental and blocking groups. All the studies were approved by the experimental animal ethics committee of Sichuan University and were conducted in compliance with the institutional guidelines for the care and use of laboratory animals. The C57B/L6 mice were injected subcutaneously with 5 × 10^6 B16-F10 cells in 100 µL of PBS into the forelimb of the animals under anesthesia with isoflurane. After 7–10 days, the B16F10 tumor-bearing mice were established and prepared for imaging and biodistribution when xenografts grew to 500–1000 mm^3.
(§2) PET scans were performed using a micro-PET/CT scanner (Inviscan, IRIS, Paris, France). [^68Ga]Ga-DOTA-M2pep (3.7 MBq) was administered to the B16F10 tumor-bearing mice (n = 4) via the tail vein. At 30 min, 1 h, and 2 h post-injection, the tumor-bearing mice were imaged with the micro-PET/CT scan under anesthesia with 2% isoflurane. Each scan was completed within 15 min. For the blocking scans, B16F10 tumor-bearing mice (n = 3) were pretreated with free M2pep (10 mM) in 100 μL saline by intravenous injection 60 min before administration of [^68Ga]Ga-DOTA-M2pep (3.7 MBq). Micro-PET/CT scans were acquired at 60 min post-injection as described above. The obtained images were reconstructed using three-dimensional ordered-subset expectation maximization (3D OSEM) and then processed using Osirix MD. Regions of interest (ROIs) were manually drawn over the tumor regions and organs, and quantitative analyses were calculated. Immunofluorescence staining was performed 24 h after micro-PET scan to determine the [^68Ga]Ga-DOTA-M2pep targeting efficiency. The harvested tumors were fixed with paraformaldehyde for 24 h, then were frozen and sectioned at 10 μm, followed by treatment with Fitc-M2pep, and staining with M2 TAMs marker PE-CD206 antibody and DAPI.

[3] = test system: B16F10 tumor-bearing mice; test: in vivo; set-up: species or system C57B/L6 mice; conditions: mouse
Method: as §1, §2

[4] = in vivo; set-up: species or system C57B/L6 mice; conditions: male, C57B/L6, mouse, iv, 1.11 MBq, total radioactivity
Method: The male C57B/L6 mice (6–8 weeks old, 20–25 g) were purchased from HFK bioscience (Beijing, China) and divided randomly into the experimental and blocking groups. All the studies were approved by the experimental animal ethics committee of Sichuan University and were conducted in compliance with the institutional guidelines for the care and use of laboratory animals. The C57B/L6 mice were injected subcutaneously with 5 × 10^6 B16-F10 cells in 100 µL of PBS into the forelimb of the animals under anesthesia with isoflurane. After 7–10 days, the B16F10 tumor-bearing mice were established and prepared for imaging and biodistribution when xenografts grew to 500–1000 mm^3. The B16F10 tumor-bearing mice (n = 3) were intravenously administered [^68Ga]Ga-DOTA-M2pep (1.11 MBq) for biodistribution studies. At 5, 15, 30, 60 min, and 2 h post-injection, mice were euthanized, and the organs of interest, including the blood, heart, lungs, liver, kidneys, spleen, stomach, intestine, muscle, bone, brain, and tumor, were harvested. The samples were then weighed and counted by an automatic γ-counter (PerkinElmer Wizard, Shelton, CT, USA). In the blocking group, the B16F10 tumor-bearing mice (n = 3) were pretreated with free M2pep (10 mM) in 100 μL saline by intravenous injection 60 min before administration of [^68Ga]Ga-DOTA-M2pep (1.11 MBq). The organs of interest were harvested, weighed, and counted as described above at 60 min post-injection. The percentage of tracer uptake was calculated as the percentage of injected dose per gram of tissue (%ID/g), which was decay-corrected to the start time of counting. The percentage reflected the activity associated with tissues per organ weight per actual injected dose.

## CC(C)[C@H](NC(=O)CNC(=O)[C@H](Cc1c[nH]c2ccccc12)NC(=O)[C@@H]1CCCN1C(=O)[C@H](CC(=O)O)NC(=O)[C@H](CCC(N)=O)NC(=O)[C@H](CCC(=O)O)NC(=O)[C@H](Cc1ccc(O)cc1)NC(=O)CN1CCN(CC(=O)O)CCN(CC(=O)O)CCN(CC(=O)O)CC1)C(=O)N[C@@H](CCCCN)C(=O)N[C@@H](Cc1c[nH]c2ccccc12)C(=O)N[C@@H](Cc1c[nH]c2ccccc12)C(=O)N[C@@H](Cc1ccc(O)cc1)C(=O)O [[^68Ga]Ga-DOTA-M2pep, metal not drawn] ({DOTA}-YEQDPWGVKWWY-OH)
[1]
  remaining at 2 h, 18.5 MBq/mL: > 85%
[2]
  tissue to tissue ratio at 0.5 h: 3.19 ± 0.22
  tissue to tissue ratio at 2 h: 3.12 ± 0.83
  tissue uptake at 0.5 h: 2.72 ± 0.07 %ID/g
  tissue uptake at 1 h: 2.93 ± 0.2 %ID/g
  tissue uptake at 2 h: 2.47 ± 0.13 %ID/g
[3]
  tumor/muscle ratio (PET): 3.35 ± 0.27
[4]; blood uptake
  tissue uptake at 5 min: 10.5 ± 2.2 %ID/g
  tissue uptake at 1 h: 1.84 ± 0.02 %ID/g
[4]; kidney uptake (peak)
  tissue uptake at 5 min: 12.7 ± 3.71 %ID/g
[4]; liver uptake
  tissue uptake at 1 h: 0.96 ± 0.02 %ID/g
[4]; tumor uptake
  tissue uptake at 1 h: 3.35 ± 0.34 %ID/g
  tissue uptake at 2 h: 3.12 ± 0.27 %ID/g
